Test results reported in the RNAGym collection of RNA variant scans (doi:10.1093/molbev/msab373).

B1: Azoarcus group I ribozyme (parent)
chain: GUGCCUUGCGCCGGGAAACCACGCAAGGGAUGGUGUCAAAUUCGGCGAAACCUAAGCGCCCGCCCGGGCGUAUGGCAACGCCGAGCCAAGCUUCGGCGCCUGCGCCGAUGAAGGUGUAGAGACUAGACGGCACCCACCUAAGGCAAACGCUAUGGUGAAGGCAUAGUCCAGGGAGUGGCGAAAGUCACACAAACCGG

Variants of: B1
Assay: reverse-splicing fitness (ratio to wild type); higher = more active; in vitro selection; Mg2+ level not given
How it was run: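 An in vitro group I ribozyme library with randomized positions was T7-transcribed and gel-purified. In triplicate, 10 pmol RNA in EPPS pH 7.5 was reacted with 50 pmoles of a 30-nt RNA substrate for 1 h at 37 °C across several added MgCl2 levels (1–48 mM), then stopped with EDTA. Products were reverse transcribed from a substrate-complementary primer, PCR-amplified and sequenced (HiSeq 4000). Fitness is a variant's read proportion after selection over that before, normalised to wild type.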

In order of falling reverse-splicing fitness:
1. C82A A111G A120U A145U  0.0342
2. C82A A111G A120U A145G  0.0318
3. C82A A111G A145G C150A C169A U176A  0.0216
4. C82A A111G A145G C150A C169A U176C  0.0215
5. C82A A111G A145C C150A U176C  0.0184
6. C82A A111G A145G C150A C169U U176C  0.0164
7. C82A A111G A145G C150A C169U U176A  0.0159
8. C82A A111G A145C C150A U176A  0.015
9. C82A A111G A145C C169U U176A  0.013
10. C82A A111G A145C C169U  0.0119
11. C82A A111G A120U A145G C150U C169G U176A  0.0115
12. C82A A111G A145C C169U U176C  0.0113
13. C82A A111G A120U A145C U176C  0.0111
14. C82A A111G A120U A145G C150G C169A U176A  0.0108
15. C82A A111G A145C C150U C169U  0.0104
16. C82A A111G A145C C169G  0.00994
17. C82A A111G A120U A145G C150G C169A U176C  0.00953
18. C82A A111G A145C C150G C169G U176A  0.0093
19. C82A A111G A120U A145C U176A  0.00841
20. C82A A111G A145C C150U C169A  0.00814
21. C82A A111G A120U A145G C150A U176C  0.00808
22. C82A A111G A145C C150A U176G  0.00802
23. C82A A111G A120U C150A U176C  0.00802
24. C82A A111G A120U A145G C150A U176A  0.00782
25. C82A A111G A145C C169A  0.0076
26. C82A A111G A145G C150A C169A U176G  0.00749
27. C82A A111G A145C C150U C169G  0.00745
28. C82A A111G A120U A145G C150U C169G  0.00703
29. C82A A111G A145C C150G C169G U176C  0.00679
30. C82A A111G A120U C150G C169A  0.00678
31. C82A A111G A145G C150A C169U U176G  0.00672
32. C82A A111G A120U A145G C150U C169A  0.00667
33. C82A A111G A145C C150G C169G U176G  0.00649
34. C82A A111G A120U C150G C169G  0.00649
35. C82A A111G A120U A145G C150U C169G U176C  0.00643
36. C82A A111G A120U A145U C150A U176C  0.00602
37. C82A A111G A120U C150G C169U  0.00601
38. C82A A111G A120U C150A U176A  0.00595
39. C82A A111G A120U A145G C150U C169U  0.00572
40. C82A A111G A145C C169U U176G  0.00571
41. C82A A111G A120U C150G C169G U176A  0.00567
42. C82A A111G A120U A145U C150A U176A  0.00478
43. C82A A111G A120U C169U  0.00452
44. C82A A111G A120U A145G C150A U176G  0.00419
45. C82A A111G A120U C169G  0.00374
46. C82A A111G A120U A145G C150G C169A U176G  0.00369
47. C82A A111G A120U A145G C169U U176A  0.00366
48. C82A A111G A120U A145U C150G C169U U176C  0.00353
49. C82A A111G A120U C150G C169G U176C  0.0034
50. C82A A111G A120U A145G C169U U176C  0.00338
51. C82A A111G A120U A145U C150A C169G U176A  0.00301
52. C82A A111G A120U A145U C150U C169G U176C  0.00298
53. C82A A111G A120U A145U C150U C169G U176A  0.00294
54. C82A A111G A120U A145C U176G  0.00284
55. C82A A111G A120U C150A U176G  0.00282
56. C82A A111G A120U A145C C150G C169U U176C  0.0028
57. C82A A111G A120U A145U C169G U176A  0.00272
58. C82A A111G A120U A145C C150G C169U U176A  0.00268
59. C82A A111G A120U A145U C150A C169G U176C  0.00264
60. C82A A111G A120U C169A  0.00261
61. C82A A111G A120U A145U C150G C169U U176G  0.0026
62. C82A A111G A120U A145C C150U C169U U176A  0.0026
63. C82A A111G A120U A145U C150G C169U U176A  0.00252
64. C82A A111G A120U A145C C150U C169U U176C  0.0025
65. C82A A111G A120U A145U C169A U176C  0.00249
66. C82A A111G A120U A145G C150U C169G U176G  0.00249
67. C82A A111G A120U C150G C169G U176G  0.00237
68. C82A A111G A120U A145U C150U C169A U176A  0.00237
69. C82A A111G A120U A145U C169G U176C  0.00235
70. C82A A111G A120U A145U C150U C169A U176C  0.00235
71. C82A A111G A120U A145C C150G C169U U176G  0.00231
72. C82A A111G A120U A145U C169A U176A  0.00218
73. C82A A111G A120U A145C C150G C169A U176A  0.00214
74. C82A A111G A120U A145U C150U C169G U176G  0.00208
75. C82A A111G A120U A145C C150G C169A U176C  0.00205
76. C82A A111G A120U A145U C150A U176G  0.00197
77. C82A A111G A120U A145C C150U C169U U176G  0.00193
78. C82A A111G A120U A145U C150A C169G U176G  0.0019
79. C82A A111G A120U A145C C150G C169A U176G  0.00179
80. C82A A111G A120U A145U C169G U176G  0.00177
81. C82A A111G A120U A145G C169U U176G  0.00173
82. C82A A111G A120U A145U C150U C169A U176G  0.00171
83. C82A A111G A120U A145C C150A C169G U176G  0.00149
84. C82A A111G A120U A145U C169A U176G  0.00145
